Measurements taken from publication PMC11605055.

T1: HIM-8 ZF1-2-CTD (Caenorhabditis elegans (N2), UniProt O18068 223-361)
T1 sequence: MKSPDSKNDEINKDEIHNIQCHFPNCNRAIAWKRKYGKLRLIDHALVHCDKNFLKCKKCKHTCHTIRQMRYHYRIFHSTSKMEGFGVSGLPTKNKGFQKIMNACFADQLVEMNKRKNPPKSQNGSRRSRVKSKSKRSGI

B1: X chromosome PC motif 12 bp (dsDNA)
DNA 1: TTGGTCAGTGCA
DNA 2: TGCACTGACCAA
B2: X PC motif TG to CA (dsDNA)
DNA 1: TTGGTCAGCACA
DNA 2: TGTGCTGACCAA

Molecular target: T1, HIM-8 ZF1-2-CTD
Assay: ITC

| Binder | Kd [nM] | binding result |
| --- | --- | --- |
| B1 | 430 ± 10 |  |
| B2 |  | no binding |
